Source: patent publication US20250326843A1 (published 2025)
Numbering of substitutions follows the chain as printed. Values belong to the binder of their own block, whether it stands above or below them.

Assays:
human B7-H4 = target: T1, human B7-H4 (human, UniProt Q7Z7D3 25-282); test: flow cytometry; CHO-K1/hu B7H4 cells
T1 chain: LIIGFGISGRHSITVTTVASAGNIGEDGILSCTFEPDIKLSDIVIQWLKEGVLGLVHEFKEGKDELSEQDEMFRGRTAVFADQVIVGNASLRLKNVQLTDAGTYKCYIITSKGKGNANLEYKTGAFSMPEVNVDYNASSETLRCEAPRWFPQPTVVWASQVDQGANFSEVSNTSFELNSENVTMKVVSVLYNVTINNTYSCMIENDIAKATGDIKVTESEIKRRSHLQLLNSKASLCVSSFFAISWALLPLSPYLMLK

cynomolgus monkey B7-H4 = target: T2, cynomolgus monkey B7-H4 (cynomolgus monkey, UniProt A0A2K5U6P5 25-282); test: flow cytometry; CHO-K1/cyno B7H4 cells
T2 chain: T1 chain with L53I, F242L, S252A

murine B7-H4 = target: T3, murine B7-H4 (murine, UniProt Q7TSP5 25-257); test: flow cytometry; CHO-K1/m B7H4 cells
T3 chain: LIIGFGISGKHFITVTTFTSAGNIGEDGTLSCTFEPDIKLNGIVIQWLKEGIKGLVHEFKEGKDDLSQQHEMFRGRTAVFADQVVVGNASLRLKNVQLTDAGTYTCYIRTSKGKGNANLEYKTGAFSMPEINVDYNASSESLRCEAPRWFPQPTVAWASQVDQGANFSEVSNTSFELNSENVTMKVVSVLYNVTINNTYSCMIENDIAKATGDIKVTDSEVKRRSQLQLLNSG

CD3 on human T cells = CD3 on human T cells (human, UniProt P07766 23-207); test: flow cytometry; T cells
CD3 on human T cells, sequence (P07766 23-207): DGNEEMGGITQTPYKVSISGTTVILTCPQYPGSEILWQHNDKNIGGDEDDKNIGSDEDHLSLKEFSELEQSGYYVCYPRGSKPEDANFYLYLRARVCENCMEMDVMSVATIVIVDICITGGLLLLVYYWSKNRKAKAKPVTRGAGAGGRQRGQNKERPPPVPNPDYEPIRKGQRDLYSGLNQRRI

human 4-1BB = human 4-1BB (human, UniProt Q07011 24-255); test: flow cytometry
human 4-1BB, sequence (Q07011 24-255): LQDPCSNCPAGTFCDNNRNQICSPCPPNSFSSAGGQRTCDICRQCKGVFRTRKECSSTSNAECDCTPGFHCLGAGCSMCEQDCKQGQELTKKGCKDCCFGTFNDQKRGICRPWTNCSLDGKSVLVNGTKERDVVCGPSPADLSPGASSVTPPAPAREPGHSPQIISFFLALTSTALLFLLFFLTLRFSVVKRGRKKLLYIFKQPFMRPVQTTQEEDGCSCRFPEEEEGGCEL

EC50 (human B7-H4): 7.7 nM
EC50 (cynomolgus monkey B7-H4): 5.83 nM
EC50 (murine B7-H4): ~250 nM
EC50 (CD3 on human T cells): ~59.3 nM
B1: B7-H4×CD3 bispecific antibody PR003733 (bispecific antibody)
light: QAVVTQEPSLTVSPGGTVTLTCRSSTGAVTTSNYANWVQQKPGQAPRGLIGGTNKRAPWTPARFSGSLLGDKAALTLLGAQPEDEAEYFCALWYSNLWVFGGGTKLTVLGQPKAAPSVTLFPPSSEELQANKATLVCLISDFYPGAVTVAWKADSSPVKAGVETTTPSKQSNNKYAASSYLSLTPEQWKSHRSYSCQVTHEGSTVEKTVAPTECS
heavy: not shown
chain: EIVMTQSPASLSVSPGERATLSCRASQSVSSNLAWYQQKPGQAPRLLIYGASTRATGIPARVSGGGSGTEFTLTISSLQSEDFAVYYCQQYKNWPFTFGPGTKLEIKGGGGSGGGGSGGGGSGGGGSQVQLVQSGAEVKKPGSSMRVSCKASEDTFSSYAISWVRQAPGQGLEWMGGTAPIFGTTNYAQKFQGRVTITADKSTSTAYMELSSLRSEDTAVYYCARGGPYFDYWGQGTLVTVSSASEPKSSDKTHTCPPCPAPEAAGGPSVFLFPPKPKDTLMISRTPEVTCVVVDVSHEDPEVKFNWYVDGVEVHNAKTKPREEQYNSTYRVVSVLTVLHQDWLNGKEYKCKVSNKALPAPIEKTISKAKGQPREPQVCTLPPSREEMTKNQVSLSCAVKGFYPSDIAVEWESNGQPENNYKTTPPVLDSDGSFFLVSKLTVDKSRWQQGNVFSCSVMHEALHNHYTQKSLSLSPGK

EC50 (human B7-H4): 6.06 nM
EC50 (cynomolgus monkey B7-H4): 4.96 nM
EC50 (murine B7-H4): ~62.5 nM
EC50 (CD3 on human T cells): ~201 nM
B2: B7-H4×CD3 bispecific antibody PR003899 (bispecific antibody)
light: B1 light
heavy: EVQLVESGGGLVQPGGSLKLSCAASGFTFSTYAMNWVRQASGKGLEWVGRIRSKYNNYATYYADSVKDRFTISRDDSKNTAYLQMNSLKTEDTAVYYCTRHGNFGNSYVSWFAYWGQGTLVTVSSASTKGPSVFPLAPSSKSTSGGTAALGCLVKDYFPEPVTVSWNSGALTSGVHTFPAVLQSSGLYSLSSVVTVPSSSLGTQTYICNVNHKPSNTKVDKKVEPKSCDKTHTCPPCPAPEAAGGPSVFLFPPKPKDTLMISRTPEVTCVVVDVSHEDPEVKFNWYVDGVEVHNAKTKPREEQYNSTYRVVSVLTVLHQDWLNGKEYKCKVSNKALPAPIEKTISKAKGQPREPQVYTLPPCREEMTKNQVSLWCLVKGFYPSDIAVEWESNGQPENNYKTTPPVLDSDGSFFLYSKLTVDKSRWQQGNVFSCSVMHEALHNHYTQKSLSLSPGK
chain: B1 chain

EC50 (human 4-1BB): 1.63 nM
B3: Urelumab (antibody, V domains shown)
VH: QVQLQQWGAGLLKPSETLSLTCAVYGGSFSGYYWSWIRQSPEKGLEWIGEINHGGYVTYNPSLESRVTISVDTSKNQFSLKLSSVTAADTAVYYCARDYGPGNYDWYFDLWGRGTLVTVSS
VL: EIVLTQSPATLSLSPGERATLSCRASQSVSSYLAWYQQKPGQAPRLLIYDASNRATGIPARFSGSGSGTDFTLTISSLEPEDFAVYYCQQRSNWPPALTFGGGTKVEIK
